Experimental data from PMC4372080 (Nature, 2014).

Molecular target: T1, TmrA-A591C (Thermus thermophilus, UniProt Q72J05 1-600, A591C)
T1 sequence (looked up): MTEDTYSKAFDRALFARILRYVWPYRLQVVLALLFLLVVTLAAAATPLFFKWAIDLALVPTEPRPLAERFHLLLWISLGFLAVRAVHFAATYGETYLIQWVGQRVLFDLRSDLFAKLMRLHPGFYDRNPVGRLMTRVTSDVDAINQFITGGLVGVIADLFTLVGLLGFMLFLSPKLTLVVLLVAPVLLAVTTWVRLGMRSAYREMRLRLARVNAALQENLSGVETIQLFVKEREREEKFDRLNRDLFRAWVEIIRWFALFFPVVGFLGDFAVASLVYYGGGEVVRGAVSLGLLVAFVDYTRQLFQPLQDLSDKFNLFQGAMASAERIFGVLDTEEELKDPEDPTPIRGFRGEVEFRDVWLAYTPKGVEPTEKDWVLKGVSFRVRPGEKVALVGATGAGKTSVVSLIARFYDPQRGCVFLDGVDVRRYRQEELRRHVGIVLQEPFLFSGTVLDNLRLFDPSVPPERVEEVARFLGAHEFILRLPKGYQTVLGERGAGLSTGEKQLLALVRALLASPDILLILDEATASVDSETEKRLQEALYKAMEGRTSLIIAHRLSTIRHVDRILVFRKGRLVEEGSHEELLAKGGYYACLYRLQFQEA
Assay: cross-linking

B1: TmrB-A567C (natural protein, Thermus thermophilus, UniProt Q72J04 1-578, looked up)
chain: MTGRSAAPLLRRLWPYVGRYRWRYLWAVLAGLVSIFFFVLTPYFLRLAVDAVQAGRGFGVYALAIVASAALSGLLSYAMRRLAVVASRQVEYDLRRDLLHHLLTLDRDFYHKHRVGDLMNRLNTDLSAVREMVGPGILMGSRLSFLVLLAFLSMYAVNARLAFYLTLILPGIFLAMRFLLRLIDRRYREAQEVFDRISTLAQEAFSGIRVVKGYALERRMVAWFQDLNRLYVEKSLALARVEGPLHALLGFLMGFAFLTVLWAGGAMVVRGELSVGELVQFNAYLAQLTWPILGLGWVMALYQRGLTSLRRLFELLDEKPAIRDEDPLPLALEDLSGEVRFEGVGLKRDGRWLLRGLTLTIPEGMTLGITGRTGSGKSLLAALVPRLLDPSEGRVYVGGHEARRIPLAVLRKAVGVAPQEPFLFSETILENIAFGLDEVDRERVEWAARLAGIHEEILAFPKGYETVLGERGITLSGGQRQRVALARALAKRPKILILDDALSAVDAETEARILQGLKTVLGKQTTLLISHRTAALRHADWIIVLDGGRIVEEGTHESLLQAGGLYCEMDRLQKEVEA
  binding result: binds
